Test results: PMC8799719

Legend:
[1] = biological target: insoluble type I collagen fibers from bovine achilles tendon, P02453;P02465; experiment: fluorescence detection of EGFP fusion binding to collagen; conditions: parent: est. 100; read off a plot
[2] = biological target: insoluble type I collagen fibers from bovine achilles tendon, P02453;P02465; experiment: fluorescence detection of EGFP fusion binding to collagen fibers; conditions: parent: est. 100; read off a plot

Substance	percent of parent [1]	percent of parent [2]
EGFP-PPC (PPC domain of VhaC fused to EGFP) D751A	3%	–
EGFP-PPC (PPC domain of VhaC fused to EGFP) E755A	51%	–
EGFP-PPC (PPC domain of VhaC fused to EGFP) E778A	21%	–
EGFP-PPC (PPC domain of VhaC fused to EGFP) K753A	100%	–
EGFP-PPC (PPC domain of VhaC fused to EGFP) W729A	58%	–
EGFP-PPC (PPC domain of VhaC fused to EGFP) W761A	7%	–
EGFP-PPC (PPC domain of VhaC fused to EGFP) W770A	100%	–
EGFP-PPC (PPC domain of VhaC fused to EGFP) W789A	19%	–
EGFP-PPC (PPC domain of VhaC fused to EGFP) Y756A	9%	–
EGFP-PPC (PPC domain of VhaC fused to EGFP) Y788A	73%	–
EGFP-PPC (PPC domain of VhaC fused to EGFP) Y791A	13%	–
activator domain-EGFP (VhaC activator domain fused to EGFP) D207A	–	70%
activator domain-EGFP (VhaC activator domain fused to EGFP) E294A	–	85%
activator domain-EGFP (VhaC activator domain fused to EGFP) F107A	–	20%
activator domain-EGFP (VhaC activator domain fused to EGFP) F160A	–	86%
activator domain-EGFP (VhaC activator domain fused to EGFP) F286A	–	51%
activator domain-EGFP (VhaC activator domain fused to EGFP) N290A	–	88%
activator domain-EGFP (VhaC activator domain fused to EGFP) R153A	–	32%
activator domain-EGFP (VhaC activator domain fused to EGFP) R293A	–	93%
activator domain-EGFP (VhaC activator domain fused to EGFP) W234A	–	69%
activator domain-EGFP (VhaC activator domain fused to EGFP) Y157A	–	42%
